The text below walks through data of paper PMC4452343, “Monitoring β-arrestin recruitment via β-lactamase enzyme fragment complementation: purification of peptide E as a low-affinity ligand for mammalian bombesin receptors” (PLoS ONE, 2015).

Assay [1] concerns the target human bombesin receptor subtype 3 (human) (UniProt P32247).
The target in assay [2] is neuromedin B receptor (human) (UniProt P28336).
Sequence of neuromedin B receptor (human) (P28336 whole entry): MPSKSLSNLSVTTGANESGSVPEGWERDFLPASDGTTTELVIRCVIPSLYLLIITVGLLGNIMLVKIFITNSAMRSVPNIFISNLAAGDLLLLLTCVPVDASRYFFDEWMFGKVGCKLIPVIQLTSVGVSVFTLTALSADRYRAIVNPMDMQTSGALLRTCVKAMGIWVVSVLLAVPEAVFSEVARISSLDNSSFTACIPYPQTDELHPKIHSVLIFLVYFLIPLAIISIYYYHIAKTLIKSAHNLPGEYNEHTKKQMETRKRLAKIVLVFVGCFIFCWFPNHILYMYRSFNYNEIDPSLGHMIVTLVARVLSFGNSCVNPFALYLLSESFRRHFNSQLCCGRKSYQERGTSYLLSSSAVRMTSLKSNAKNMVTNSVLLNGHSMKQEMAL

Sequence of human bombesin receptor subtype 3 (human) (P32247 whole entry): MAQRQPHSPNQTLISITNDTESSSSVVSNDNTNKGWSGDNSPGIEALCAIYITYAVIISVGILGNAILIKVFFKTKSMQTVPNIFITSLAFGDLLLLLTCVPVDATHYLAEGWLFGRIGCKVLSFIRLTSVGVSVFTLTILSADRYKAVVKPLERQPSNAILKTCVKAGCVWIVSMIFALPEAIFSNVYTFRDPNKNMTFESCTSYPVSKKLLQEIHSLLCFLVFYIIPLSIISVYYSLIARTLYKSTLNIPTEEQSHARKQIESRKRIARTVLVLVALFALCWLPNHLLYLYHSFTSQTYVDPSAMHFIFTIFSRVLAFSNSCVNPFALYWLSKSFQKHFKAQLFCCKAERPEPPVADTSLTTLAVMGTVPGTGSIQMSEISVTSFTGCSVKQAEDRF

In assay [1], “[D-Phe^6, ß-Ala^11, Phe^13, Nle^14]-Bombesin (6–14) (peptide)” returned an EC50 of NFAT-luciferase reporter activation in CHO cells expressing hBRS3 of 8.8 nM.

In assay [2], neuromedin B (peptide) returned an EC50 of NFAT-luciferase reporter activation in CHO cells expressing hNMBR of 0.16 nM.
